Target: human/mouse chimeric PD-1 protein (humanized PD-1 of B-hPD-1 mice) (human/mouse chimeric)
Assay: flow cytometry on T lymphocytes (CD3+) of F1 generation B-hPD-1 mice

Sequence of human/mouse chimeric PD-1 protein (humanized PD-1 of B-hPD-1 mice) (human/mouse chimeric) (chain, as listed by the source mutant limits assumed): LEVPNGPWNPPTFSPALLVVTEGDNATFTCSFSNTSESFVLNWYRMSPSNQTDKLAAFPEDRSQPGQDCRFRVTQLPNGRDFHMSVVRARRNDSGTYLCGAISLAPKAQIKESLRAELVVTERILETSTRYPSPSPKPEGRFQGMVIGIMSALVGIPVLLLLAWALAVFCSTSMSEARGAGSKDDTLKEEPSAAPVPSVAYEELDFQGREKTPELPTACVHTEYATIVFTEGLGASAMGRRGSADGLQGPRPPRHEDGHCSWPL

percent of double-positive cells (anti-human PD-1 and anti-mouse CD3): 92%
Substance: anti-human PD-1 antibody hPD-1 FITC (Biolegend, article number 329904)
